{"source": "paper PMC6123492", "about": "“Structural and biochemical insights into small RNA 3′ end trimming by Arabidopsis SDN1”", "binders": {"B1": {"name": "miR166:5'-IUU (dsRNA)", "RNA 1": "UCGGACCAGGCUUCAUCCCCC", "RNA 2": "GAUUCCCUUGAAGCUUGGUCCGGAUUA", "modifications": "5-iodoU at 3,4 of strand 2"}, "B2": {"name": "miR166:3'-IUU (dsRNA)", "RNA 1": "UCGGACCAGGCUUCAUCCCCC", "RNA 2": "GAUUCCCUUGAAGCUUGGUCCGGAUUA", "modifications": "5-iodoU at 25,26 of strand 2"}}, "key": {"SDN1 TEV [1]": {"target": "T1, SDN1 TEV (Arabidopsis thaliana, UniProt A3KPE8 2-300+=ENLYFQS+301-409, internal_change)", "T1 sequence": "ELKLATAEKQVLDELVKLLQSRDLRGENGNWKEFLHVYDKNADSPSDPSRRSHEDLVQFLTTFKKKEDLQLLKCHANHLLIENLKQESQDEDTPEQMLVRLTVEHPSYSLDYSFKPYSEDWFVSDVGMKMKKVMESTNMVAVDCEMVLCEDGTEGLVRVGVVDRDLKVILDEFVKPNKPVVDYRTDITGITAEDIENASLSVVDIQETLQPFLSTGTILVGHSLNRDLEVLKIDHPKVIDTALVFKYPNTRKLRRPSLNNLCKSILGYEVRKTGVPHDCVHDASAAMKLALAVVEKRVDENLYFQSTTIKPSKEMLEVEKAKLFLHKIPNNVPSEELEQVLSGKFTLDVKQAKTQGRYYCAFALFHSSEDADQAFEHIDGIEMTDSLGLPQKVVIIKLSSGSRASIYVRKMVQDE", "assay": "UV crosslinking + TEV mapping; RNA on RRM fragment; EMSA: 50 mM Tris pH 8.0, 100 mM NaCl, 1 mM DTT, no Mg2+, 2 nM RNA, on ice 30 min, 8% native PAGE in 0.5x TBE; NMR: 50 mM Na2HPO4 pH 7.4, 100 mM NaCl, 10% D2O", "settings": "protein: recombinant; tags: His-SUMO tag removed; label: 5' 32P on target strand; unpaired miR166 3' end (T6-type); target 3' overhang 4 nt"}, "SDN1 TEV [2]": {"target": "T1, SDN1 TEV", "assay": "UV crosslinking + TEV mapping; RNA on DEDDh (ΔC) fragment; EMSA: 50 mM Tris pH 8.0, 100 mM NaCl, 1 mM DTT, no Mg2+, 2 nM RNA, on ice 30 min, 8% native PAGE in 0.5x TBE; NMR: 50 mM Na2HPO4 pH 7.4, 100 mM NaCl, 10% D2O", "settings": "protein: recombinant; tags: His-SUMO tag removed; label: 5' 32P on target strand; unpaired miR166 3' end (T6-type); target 3' overhang 4 nt"}, "SDN1 Q21A": {"target": "T2, SDN1 Q21A (Arabidopsis thaliana, UniProt A3KPE8 2-409, Q21A)", "T2 sequence": "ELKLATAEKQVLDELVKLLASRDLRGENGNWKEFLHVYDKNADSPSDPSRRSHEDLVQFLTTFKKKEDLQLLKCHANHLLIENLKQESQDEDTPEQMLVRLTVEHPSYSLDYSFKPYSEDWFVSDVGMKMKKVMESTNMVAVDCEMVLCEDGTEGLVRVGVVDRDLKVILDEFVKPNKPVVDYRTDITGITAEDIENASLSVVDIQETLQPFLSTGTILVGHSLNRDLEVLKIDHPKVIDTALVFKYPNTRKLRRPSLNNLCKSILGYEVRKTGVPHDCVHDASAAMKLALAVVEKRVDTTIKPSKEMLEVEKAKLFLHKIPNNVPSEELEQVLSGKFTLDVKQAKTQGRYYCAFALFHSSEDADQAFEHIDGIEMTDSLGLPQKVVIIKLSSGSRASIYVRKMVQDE", "assay": "EMSA; not impaired; EMSA: 50 mM Tris pH 8.0, 100 mM NaCl, 1 mM DTT, no Mg2+, 2 nM RNA, on ice 30 min, 8% native PAGE in 0.5x TBE; NMR: 50 mM Na2HPO4 pH 7.4, 100 mM NaCl, 10% D2O", "settings": "protein: recombinant; tags: His-SUMO tag removed; label: 5' 32P; single strand"}, "SDN1 S22A": {"target": "T3, SDN1 S22A (Arabidopsis thaliana, UniProt A3KPE8 2-409, S22A)", "T3 sequence": "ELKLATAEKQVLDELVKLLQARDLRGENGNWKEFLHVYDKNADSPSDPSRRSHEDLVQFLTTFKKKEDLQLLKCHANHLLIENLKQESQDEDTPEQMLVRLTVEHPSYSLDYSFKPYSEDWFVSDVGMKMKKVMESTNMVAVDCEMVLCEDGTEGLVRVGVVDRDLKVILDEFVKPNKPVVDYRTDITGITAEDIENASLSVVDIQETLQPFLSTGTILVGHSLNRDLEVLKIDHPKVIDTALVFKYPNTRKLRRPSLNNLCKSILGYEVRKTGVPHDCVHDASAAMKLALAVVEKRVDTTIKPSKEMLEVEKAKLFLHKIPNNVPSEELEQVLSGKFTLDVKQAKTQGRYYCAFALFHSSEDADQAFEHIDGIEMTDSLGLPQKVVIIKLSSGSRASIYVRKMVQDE", "assay": "EMSA; not impaired; EMSA: 50 mM Tris pH 8.0, 100 mM NaCl, 1 mM DTT, no Mg2+, 2 nM RNA, on ice 30 min, 8% native PAGE in 0.5x TBE; NMR: 50 mM Na2HPO4 pH 7.4, 100 mM NaCl, 10% D2O", "settings": "protein: recombinant; tags: His-SUMO tag removed; label: 5' 32P; single strand"}, "SDN1 F356A": {"target": "T4, SDN1 F356A (Arabidopsis thaliana, UniProt A3KPE8 2-409, F356A)", "T4 sequence": "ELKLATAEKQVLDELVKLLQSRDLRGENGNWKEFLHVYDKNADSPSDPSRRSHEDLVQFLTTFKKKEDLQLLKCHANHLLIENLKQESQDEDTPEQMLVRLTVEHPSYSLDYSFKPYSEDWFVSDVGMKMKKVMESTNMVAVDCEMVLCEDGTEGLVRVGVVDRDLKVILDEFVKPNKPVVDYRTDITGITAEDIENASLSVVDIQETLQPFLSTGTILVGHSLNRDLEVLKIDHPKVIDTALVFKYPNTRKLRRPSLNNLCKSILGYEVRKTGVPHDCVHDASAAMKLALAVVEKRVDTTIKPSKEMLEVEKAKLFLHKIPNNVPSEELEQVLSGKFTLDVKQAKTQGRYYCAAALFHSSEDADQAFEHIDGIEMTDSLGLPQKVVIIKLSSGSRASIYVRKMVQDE", "assay": "EMSA; no Mg2+; not impaired; EMSA: 50 mM Tris pH 8.0, 100 mM NaCl, 1 mM DTT, no Mg2+, 2 nM RNA, on ice 30 min, 8% native PAGE in 0.5x TBE; NMR: 50 mM Na2HPO4 pH 7.4, 100 mM NaCl, 10% D2O", "settings": "protein: recombinant; tags: His-SUMO tag removed; label: 5' 32P; single strand"}}, "data": [{"binder": "B1", "values": [{"measurement": "binding result", "setting": "SDN1 TEV [1]", "value": "binds"}]}, {"binder": "B2", "values": [{"measurement": "binding result", "setting": "SDN1 TEV [2]", "value": "binds"}]}, {"binder": "UCGGACCAGGCUUCAUCCCCC (ssRNA)", "note": "[miR166]", "values": [{"measurement": "binding result", "setting": "SDN1 Q21A", "value": "binds"}, {"measurement": "binding result", "setting": "SDN1 S22A", "value": "binds"}, {"measurement": "binding result", "setting": "SDN1 F356A", "value": "binds"}]}]}
